The values that follow come from US20100061983A1 (published 2010).

Assay [1] concerns the target T1, human CXC Chemokine Receptor 3 (CXCR3) (human, UniProt P49682 1-368).
T1 construct: also called IP-10/Mig receptor; IP-10/MigR
T1 sequence: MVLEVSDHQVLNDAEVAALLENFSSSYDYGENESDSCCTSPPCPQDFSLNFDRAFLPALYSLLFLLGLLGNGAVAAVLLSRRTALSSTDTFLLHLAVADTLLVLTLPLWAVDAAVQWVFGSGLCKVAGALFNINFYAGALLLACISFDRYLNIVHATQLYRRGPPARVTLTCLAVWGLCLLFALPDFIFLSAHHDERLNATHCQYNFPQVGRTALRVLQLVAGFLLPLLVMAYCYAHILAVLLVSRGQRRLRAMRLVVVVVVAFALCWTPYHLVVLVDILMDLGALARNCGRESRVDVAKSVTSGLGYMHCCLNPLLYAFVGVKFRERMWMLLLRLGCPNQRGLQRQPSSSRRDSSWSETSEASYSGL
In words: cell-based or functional assay.

Assay [2] deals with T1, human CXC Chemokine Receptor 3 (CXCR3). In words: inhibition of 125I-IP-10 binding to activated T cells.
Assay [3] shares this target. In words: inhibition of 0.05 nM 125I-IP-10 binding to activated T cells (CD3 blasts).
For assay [4] the target is unchanged. In words: summing-up of the radioligand binding studies; Mig itself was tested only as cold competitor of 125I-IP-10.

On to “MCP-1 (monocyte chemotactic protein-1) (from UniProt P13500 24-99) (ligand)”, for which, in assay [1], the [Ca2+]i changes in IP-10/MigR transfectants (no response up to the concentration given) was > 100 nM.

Take “MIP-1α (macrophage inflammatory protein-1α) (from UniProt P10147 24-92) (ligand)”: the [Ca2+]i changes in IP-10/MigR transfectants (no response up to the concentration given) in assay [1] is > 100 nM.

Consider “MCP-4 (from UniProt Q99616 24-98) (ligand)”, for which the [Ca2+]i changes in IP-10/MigR transfectants (no response up to the concentration given) in assay [1] is > 100 nM. One may read the IC50 as the concentration that inhibits the measured activity by half. Higher therefore signals weaker potency in that assay. For “murine anti-CXCR3 monoclonal antibody 1C6”, in assay [1], the IC50, inhibition of IP-10 (12.5 nM) induced chemotaxis of activated T cells worked out at 0.8 µg/mL; the IC50, inhibition of IP-10 mediated chemotaxis of activated T cells was 0.856 µg/mL; the Mig (2 nM) induced [Ca2+]i in activated T cells (no effect up to the concentration given) was > 50 µg/mL; the antibody concentration giving 100% inhibition of IP-10 induced chemotaxis of activated T cells was 2 to 5 µg/mL. Besides, in assay [2], the antibody concentration giving complete inhibition of 125I-IP-10 binding was in the range of 1 to 10 µg/mL. In assay [3], this molecule displayed an IC50 of 0.16 µg/mL. Regarding “RANTES (regulated on activation, normal T cell expressed and secreted) (from UniProt P13501 24-91) (ligand)”, the [Ca2+]i changes in IP-10/MigR transfectants (no response up to the concentration given) in assay [1] was > 100 nM. Turning to “MIP-1β (from UniProt P13236 24-92) (ligand)”, the [Ca2+]i changes in IP-10/MigR transfectants (no response up to the concentration given) in assay [1] is > 100 nM. Same read-out and setting: the value for “eotaxin (from UniProt P51671 24-97) (ligand)” was > 100 nM.

As to “MCP-3 (from UniProt P80098 24-99) (ligand)”, the [Ca2+]i changes in IP-10/MigR transfectants (no response up to the concentration given) in assay [1] is > 100 nM. On to “IL-8 (interleukin 8) (from UniProt P10145 28-99) (ligand)”, for which, in assay [1], the [Ca2+]i changes in IP-10/MigR transfectants (no response up to the concentration given) is > 100 nM. As for “lymphotactin (from UniProt P47992 22-114) (ligand)”, the [Ca2+]i changes in IP-10/MigR transfectants (no response up to the concentration given) in assay [1] is > 100 nM. Still for that read-out and setting: the value for “GCP-2 (granulocyte chemotactic protein-2) (from UniProt P80162 38-114) (ligand)” was > 100 nM. As to “MCP-2 (from UniProt P80075 24-99) (ligand)”, the [Ca2+]i changes in IP-10/MigR transfectants (no response up to the concentration given) in assay [1] is > 100 nM. Consider “ENA78 (epithelial-derived neutrophil-activating peptide 78) (from UniProt P42830 37-114) (ligand)”, for which, in assay [1], the [Ca2+]i changes in IP-10/MigR transfectants (no response up to the concentration given) was > 100 nM.

Regarding “GROα (from UniProt P09341 35-107) (ligand)”, the [Ca2+]i changes in IP-10/MigR transfectants (no response up to the concentration given) in assay [1] is > 100 nM.

B1: Mig (monokine induced by gamma interferon) (ligand, human, UniProt Q07325 23-125, looked up)
chain: TPVVRKGRCSCISTNQGTIHLQSLKDLKQFAPSPSCEKIEIIATLKNGVQTCLNPDSADVKELIKKWEKQVSQKKKQKNGKKHQKKKVLKVRKSQRSRQKKTT
notes: also called cold Mig
In general, Kd refers to the free concentration of one partner at which half of the binding sites on the other are occupied at equilibrium, for simple one-to-one binding. High values mean a looser complex, low ones a tighter complex. Take B1: the equilibrium dissociation constant (Kd) in assay [4] lay in the range of 0.15 to 0.6 nM.

B2: PF4 (platelet factor 4) (ligand, human, UniProt P02776 32-101, looked up)
chain: EAEEDGDLQCLCVKTTSQVRPRHITSLEVIKAGPHCPTAQLIATLKNGRKICLDLQAPLYKKIIKKLLES
As to B2, the [Ca2+]i changes in IP-10/MigR transfectants (no response up to the concentration given) in assay [1] is > 100 nM.

B3: I309 (ligand, human, UniProt P22362 24-96, looked up)
chain: KSMQVPFSRCCFSFAEQEIPLRAILCYRNTSSICSNEGLIFKLKRGKEACALDTVGWVQRHRKMLRHCPSKRK
Regarding B3, in assay [1], the [Ca2+]i changes in IP-10/MigR transfectants (no response up to the concentration given) is > 100 nM.

B4: NAP-2 (neutrophil-activating protein-2) (ligand, human, UniProt P02775 59-128, looked up)
chain: AELRCMCIKTTSGIHPKNIQSLEVIGKGTHCNQVEVIATLKDGRKICLDPDAPRIKKIVQKKLAGDESAD
Consider B4, for which the [Ca2+]i changes in IP-10/MigR transfectants (no response up to the concentration given) in assay [1] was > 100 nM.
